What was measured:
human 4-1BB = molecular target: T1, human 4-1BB (human, UniProt Q07011 24-255); experiment: flow cytometry (FACS) on human 41BB transfected CHO cells
T1 construct: whole, on cells; also called human 41BB transfected CHO cells
Procedure: (§1) The tetra-specific GNC antibodies listed in TABLEs 3 and 4 were tested for binding to Chinese hamster ovary cells (CHO) cells stably expressing a full-length human ROR1. Antibodies were prepared at 2× final concentration and titrated 1:5 across 3 wells of a 96 well plate in 50 ul of PBS/2% FBS and then 5,000 ROR1-CHO cells in 50 ul PBS/2% FBS were added. This mixture was incubated for 30 minutes on ice, washed once with 200 ul PBS/2% FBS, and then the secondary antibody PE Goat anti-Human IgG Fc at 1:1000 dilution of stock was added, and this mixture was incubated for 30 minutes on ice. Cells were washed 2×200 ul PBS/2% FBS, resuspended in 50 ul PBS/2% FBS and analyzed on a BD LSRFORTESSA and the binding profile is shown in FIG. 5. All of the tetra-specific GNC antibodies except for the control SI-27E12 contain a 41BB binding domain, 460C3, 420H5, or 466F6 and bound to 41BB expressing CHO cells with varying intensity.

human PD-L1 = molecular target: T2, human PD-L1 (human, UniProt Q9NZQ7 19-290); experiment: flow cytometry (FACS) on human PDL1 transfected CHO cells
T2 construct: whole, on cells; also called human PDL1 transfected CHO cells

human ROR1 = molecular target: T3, human ROR1 (human, UniProt Q01973 30-937); experiment: flow cytometry (FACS) on CHO cells stably expressing full-length human ROR1
T3 construct: whole, on cells; also called full-length human ROR1 on CHO cells; ROR1-CHO
Procedure: as §1, with “4.” for “5. All of the tetra-specific GNC antibodies except for the control SI-27E12 contain a 41BB binding domain, 460C3, 420H5, or 466F6 and bound to 41BB expressing CHO cells with varying intensity.”

Measured: binding result

T3 sequence (Q01973 30-937): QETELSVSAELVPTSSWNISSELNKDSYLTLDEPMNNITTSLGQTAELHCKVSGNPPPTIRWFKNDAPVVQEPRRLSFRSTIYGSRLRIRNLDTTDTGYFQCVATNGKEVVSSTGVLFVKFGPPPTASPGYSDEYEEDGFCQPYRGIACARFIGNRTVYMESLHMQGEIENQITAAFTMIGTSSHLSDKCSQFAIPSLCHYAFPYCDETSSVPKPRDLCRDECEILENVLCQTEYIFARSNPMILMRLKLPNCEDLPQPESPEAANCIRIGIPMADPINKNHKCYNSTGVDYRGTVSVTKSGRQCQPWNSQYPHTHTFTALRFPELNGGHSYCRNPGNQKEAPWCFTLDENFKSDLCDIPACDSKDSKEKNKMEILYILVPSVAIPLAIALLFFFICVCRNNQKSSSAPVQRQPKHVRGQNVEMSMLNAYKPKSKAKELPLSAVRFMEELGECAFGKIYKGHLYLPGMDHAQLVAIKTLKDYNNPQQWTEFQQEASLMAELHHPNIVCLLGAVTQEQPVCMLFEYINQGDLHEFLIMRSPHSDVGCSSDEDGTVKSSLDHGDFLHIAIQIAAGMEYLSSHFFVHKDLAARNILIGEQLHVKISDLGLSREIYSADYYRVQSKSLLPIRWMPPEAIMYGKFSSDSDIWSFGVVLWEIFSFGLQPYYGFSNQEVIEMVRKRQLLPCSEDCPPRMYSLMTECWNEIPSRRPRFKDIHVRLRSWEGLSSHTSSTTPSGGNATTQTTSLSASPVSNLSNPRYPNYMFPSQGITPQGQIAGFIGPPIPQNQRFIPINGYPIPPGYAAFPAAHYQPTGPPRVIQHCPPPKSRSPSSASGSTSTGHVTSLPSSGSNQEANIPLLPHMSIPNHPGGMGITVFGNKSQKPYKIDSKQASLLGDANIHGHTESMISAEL
T2 sequence (Q9NZQ7 19-290): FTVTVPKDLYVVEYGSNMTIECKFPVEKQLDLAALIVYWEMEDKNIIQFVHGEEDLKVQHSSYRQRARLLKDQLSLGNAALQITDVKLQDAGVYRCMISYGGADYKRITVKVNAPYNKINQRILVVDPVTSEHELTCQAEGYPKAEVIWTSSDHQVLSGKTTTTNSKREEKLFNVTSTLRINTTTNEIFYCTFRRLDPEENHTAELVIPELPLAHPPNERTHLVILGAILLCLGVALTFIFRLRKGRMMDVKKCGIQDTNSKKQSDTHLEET
T1 sequence (Q07011 24-255): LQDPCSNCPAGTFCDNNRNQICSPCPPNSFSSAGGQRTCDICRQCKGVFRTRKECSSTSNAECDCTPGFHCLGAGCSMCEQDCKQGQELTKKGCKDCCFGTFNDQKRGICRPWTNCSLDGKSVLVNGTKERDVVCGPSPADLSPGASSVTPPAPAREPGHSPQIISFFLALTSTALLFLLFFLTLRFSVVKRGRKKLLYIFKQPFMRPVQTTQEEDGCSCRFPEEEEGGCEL

B1: SI-35E18 (460C3-L1H1-scFv x PL230C6-Fab x 323H7-H4L1-scFv x 284A10-H1L1-scFv) (antibody)
heavy: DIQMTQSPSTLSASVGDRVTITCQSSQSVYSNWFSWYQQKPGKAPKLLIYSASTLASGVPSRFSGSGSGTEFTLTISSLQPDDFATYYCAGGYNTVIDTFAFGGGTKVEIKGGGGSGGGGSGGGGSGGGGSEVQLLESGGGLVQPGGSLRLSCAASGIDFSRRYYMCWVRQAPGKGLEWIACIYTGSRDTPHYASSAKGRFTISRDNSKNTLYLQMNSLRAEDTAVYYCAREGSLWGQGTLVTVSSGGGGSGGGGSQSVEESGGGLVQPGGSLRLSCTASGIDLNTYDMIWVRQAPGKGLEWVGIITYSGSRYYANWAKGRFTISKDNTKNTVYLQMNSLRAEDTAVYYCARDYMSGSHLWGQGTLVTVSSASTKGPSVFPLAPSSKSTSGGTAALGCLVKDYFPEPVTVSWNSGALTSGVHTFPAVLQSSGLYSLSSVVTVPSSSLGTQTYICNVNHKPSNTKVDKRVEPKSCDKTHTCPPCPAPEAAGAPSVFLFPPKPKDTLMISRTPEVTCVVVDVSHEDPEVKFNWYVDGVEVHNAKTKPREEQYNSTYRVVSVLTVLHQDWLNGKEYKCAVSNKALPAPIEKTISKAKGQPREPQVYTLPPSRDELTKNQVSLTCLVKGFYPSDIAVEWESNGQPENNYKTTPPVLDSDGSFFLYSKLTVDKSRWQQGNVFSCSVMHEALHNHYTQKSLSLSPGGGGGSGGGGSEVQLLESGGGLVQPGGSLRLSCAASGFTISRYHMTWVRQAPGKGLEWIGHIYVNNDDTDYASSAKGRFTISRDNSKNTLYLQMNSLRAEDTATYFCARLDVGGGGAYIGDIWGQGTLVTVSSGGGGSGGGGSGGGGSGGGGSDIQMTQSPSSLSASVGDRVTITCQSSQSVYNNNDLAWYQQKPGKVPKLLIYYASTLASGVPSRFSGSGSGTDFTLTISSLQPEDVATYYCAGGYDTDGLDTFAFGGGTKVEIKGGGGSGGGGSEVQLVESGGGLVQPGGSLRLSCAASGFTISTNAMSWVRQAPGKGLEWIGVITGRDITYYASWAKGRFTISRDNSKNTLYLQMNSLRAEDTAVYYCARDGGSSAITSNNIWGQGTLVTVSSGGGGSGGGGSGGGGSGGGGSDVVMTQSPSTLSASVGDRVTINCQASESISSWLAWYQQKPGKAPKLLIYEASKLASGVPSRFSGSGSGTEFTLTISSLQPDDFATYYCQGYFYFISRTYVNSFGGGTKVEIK
light: AYDMTQSPSSVSASVGDRVTIKCQASEDIYSFLAWYQQKPGKAPKLLIHSASSLASGVPSRFSGSGSGTDFTLTISSLQPEDFATYYCQQGYGKNNVDNAFGGGTKVEIKRTVAAPSVFIFPPSDEQLKSGTASVVCLLNNFYPREAKVQWKVDNALQSGNSQESVTEQDSKDSTYSLSSTLTLSKADYEKHKVYACEVTHQGLSSPVTKSFNRGEC
notes: Tetra-specific (4-1BB x PD-L1 x ROR1 x CD3) antibody with human IgG1 null2 Fc; also called tetra-specific GNC antibody
binds: all assays above

B2: SI-35E20 (466F6-L5H2-scFv x PL230C6-Fab x 323H7-H4L1-scFv x 284A10-H1L1-scFv) (antibody)
heavy: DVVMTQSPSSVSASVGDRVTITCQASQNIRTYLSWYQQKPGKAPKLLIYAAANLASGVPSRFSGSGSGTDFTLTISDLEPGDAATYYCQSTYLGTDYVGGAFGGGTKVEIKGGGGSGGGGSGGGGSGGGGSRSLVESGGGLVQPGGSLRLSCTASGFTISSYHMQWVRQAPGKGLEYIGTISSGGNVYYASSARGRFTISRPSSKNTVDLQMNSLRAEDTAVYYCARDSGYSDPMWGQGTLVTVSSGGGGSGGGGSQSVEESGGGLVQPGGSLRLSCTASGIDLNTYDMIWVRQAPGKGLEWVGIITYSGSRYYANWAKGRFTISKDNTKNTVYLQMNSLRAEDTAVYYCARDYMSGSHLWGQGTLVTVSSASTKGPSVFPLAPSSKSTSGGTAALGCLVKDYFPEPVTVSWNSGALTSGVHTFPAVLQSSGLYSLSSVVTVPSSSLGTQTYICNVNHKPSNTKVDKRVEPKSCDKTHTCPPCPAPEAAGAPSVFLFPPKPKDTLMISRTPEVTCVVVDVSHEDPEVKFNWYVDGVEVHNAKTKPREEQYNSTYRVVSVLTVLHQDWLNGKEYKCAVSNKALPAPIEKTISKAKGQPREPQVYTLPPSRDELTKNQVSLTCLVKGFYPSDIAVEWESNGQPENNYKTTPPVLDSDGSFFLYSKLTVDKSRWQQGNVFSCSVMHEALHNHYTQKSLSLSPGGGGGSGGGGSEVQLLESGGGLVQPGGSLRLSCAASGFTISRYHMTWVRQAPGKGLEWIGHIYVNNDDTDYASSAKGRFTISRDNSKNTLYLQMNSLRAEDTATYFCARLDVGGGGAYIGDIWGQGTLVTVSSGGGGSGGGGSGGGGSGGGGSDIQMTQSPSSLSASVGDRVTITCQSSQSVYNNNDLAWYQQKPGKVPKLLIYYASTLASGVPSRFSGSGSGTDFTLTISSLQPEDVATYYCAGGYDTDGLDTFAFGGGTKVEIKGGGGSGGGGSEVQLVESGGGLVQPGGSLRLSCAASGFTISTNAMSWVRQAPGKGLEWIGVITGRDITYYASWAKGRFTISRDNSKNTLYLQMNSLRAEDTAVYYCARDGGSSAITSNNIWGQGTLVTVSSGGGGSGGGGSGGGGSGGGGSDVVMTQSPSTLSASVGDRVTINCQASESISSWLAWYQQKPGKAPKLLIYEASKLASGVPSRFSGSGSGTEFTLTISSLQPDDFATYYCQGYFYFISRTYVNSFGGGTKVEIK
light: B1 light
notes: as for B1
binds: all assays above

From patent publication US20210024630A1 (SYSTIMMUNE, published 2021)
